The text below walks through data of CN114591430A.

The target of assay [1] is 牛血清白蛋白(BSA) (bovine) (UniProt P02769). The assay can be described thus: indirect ELISA, BSA coated at 1 ug/ml, purified antibody at dilution 16K, HRP goat anti-mouse IgG.
Assay [2] shares this target. Description: ELISA, BSA coated at 1 ug/ml, biotin-labelled antibody at dilution 2K, HRP-avidin. A general note: ELISA stands for enzyme-linked immunosorbent assay.
Assay [3] has the same target. Description: ELISA, BSA coated at 1 ug/ml, biotin-labelled antibody at dilution 64K, HRP-avidin.
Assay [4] has the same target. The assay can be described thus: ELISA, BSA coated at 1 ug/ml, biotin-labelled antibody at dilution 16K, HRP-avidin.
The target is the same in assay [5]. Description: ELISA, BSA coated at 1 ug/ml, biotin-labelled antibody at dilution 256K, HRP-avidin.
Assay [6] shares this target. Description: ELISA, BSA coated at 1 ug/ml, biotin-labelled antibody at dilution 32K, HRP-avidin.
For assay [7] the target is unchanged. The assay can be described thus: indirect ELISA, BSA coated at 1 ug/ml, purified antibody at dilution 1K, HRP goat anti-mouse IgG.
Assay [8] has the same target. The assay can be described thus: ELISA, BSA coated at 1 ug/ml, biotin-labelled antibody at dilution 512K, HRP-avidin.
Assay [9] has the same target. The assay can be described thus: ELISA, BSA coated at 1 ug/ml, biotin-labelled antibody at dilution 1K, HRP-avidin.
For assay [10] the target is unchanged. Description: indirect ELISA, BSA coated at 1 ug/ml, purified antibody at dilution 8K, HRP goat anti-mouse IgG.
For assay [11] the target is unchanged. The assay can be described thus: indirect ELISA, BSA coated at 1 ug/ml, purified antibody at dilution 32K, HRP goat anti-mouse IgG.
Assay [12] has the same target. The assay can be described thus: indirect ELISA, BSA coated at 1 ug/ml, purified antibody at dilution 256K, HRP goat anti-mouse IgG.
For assay [13] the target is unchanged. Description: indirect ELISA, BSA coated at 1 ug/ml, purified antibody at dilution 64K, HRP goat anti-mouse IgG.
Assay [14] shares this target. The assay can be described thus: ELISA, BSA coated at 1 ug/ml, biotin-labelled antibody at dilution 128K, HRP-avidin.
Assay [15] has the same target. Description: indirect ELISA, BSA coated at 1 ug/ml, purified antibody at dilution 2K, HRP goat anti-mouse IgG.
For assay [16] the target is unchanged. Description: indirect ELISA, BSA coated at 1 ug/ml, purified antibody at dilution 1024K, HRP goat anti-mouse IgG.
Assay [17] shares this target. The assay can be described thus: indirect ELISA, BSA coated at 1 ug/ml, purified antibody at dilution 128K, HRP goat anti-mouse IgG.
Assay [18] has the same target. The assay can be described thus: ELISA, BSA coated at 1 ug/ml, biotin-labelled antibody at dilution 8K, HRP-avidin.
For assay [19] the target is unchanged. Description: ELISA, BSA coated at 1 ug/ml, biotin-labelled antibody at dilution 4K, HRP-avidin.
Assay [20] has the same target. Description: ELISA, BSA coated at 1 ug/ml, biotin-labelled antibody at dilution 1024K, HRP-avidin.
Assay [21] shares this target. The assay can be described thus: indirect ELISA, BSA coated at 1 ug/ml, purified antibody at dilution 4K, HRP goat anti-mouse IgG.
Assay [22] has the same target. Description: indirect ELISA, BSA coated at 1 ug/ml, purified antibody at dilution 512K, HRP goat anti-mouse IgG.

Chain of UniProt P02769 (P02769 25-607): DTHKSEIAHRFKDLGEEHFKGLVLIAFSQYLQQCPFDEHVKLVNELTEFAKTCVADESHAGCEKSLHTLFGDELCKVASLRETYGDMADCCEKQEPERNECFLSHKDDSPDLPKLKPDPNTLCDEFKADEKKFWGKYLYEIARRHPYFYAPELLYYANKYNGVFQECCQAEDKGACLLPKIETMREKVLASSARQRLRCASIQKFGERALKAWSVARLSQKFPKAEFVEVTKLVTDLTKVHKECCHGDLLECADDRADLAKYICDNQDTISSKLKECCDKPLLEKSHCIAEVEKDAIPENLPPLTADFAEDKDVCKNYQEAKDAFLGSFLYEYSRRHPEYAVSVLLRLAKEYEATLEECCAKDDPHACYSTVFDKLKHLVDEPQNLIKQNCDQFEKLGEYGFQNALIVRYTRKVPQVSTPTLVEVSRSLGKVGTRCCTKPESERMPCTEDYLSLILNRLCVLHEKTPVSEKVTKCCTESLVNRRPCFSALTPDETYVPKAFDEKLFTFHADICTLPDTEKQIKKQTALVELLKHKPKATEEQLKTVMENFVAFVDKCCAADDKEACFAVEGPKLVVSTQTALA

B1: BSA抗体B6 (antibody, V domains shown)
VH: VQLQESGAELVKPGASVKLSCKASGYTFTGQYVSWVKQRPGQGLEWIGEDNKSSRQGTEYSKATLTVDKSSSTAYMQLSSLTSEDSAVYYCTRDEVRSETYWGQGTTVTVSS
VL: DIVLTQSPATLSVTPGDSVSLSCRTEDKSLSYHWFQQKSHESPRLLIKDAYQKISGIPSRFNGCGSGTDFTLNINSVETEDFGMFFCQTSGWTHFGSGTKLEIKR
As to B1, the OD450 with 牛血清白蛋白(BSA) (bovine) [1] was determined as 0.648; in the assay with 牛血清白蛋白(BSA) (bovine) [2], 2.11; with 牛血清白蛋白(BSA) (bovine) [3], 0.885; with 牛血清白蛋白(BSA) (bovine) [4], 1.42; with 牛血清白蛋白(BSA) (bovine) [5], 0.431; in the assay with 牛血清白蛋白(BSA) (bovine) [6] it was 1.13. For the same molecule, the OD450 in the assay with 牛血清白蛋白(BSA) (bovine) [7] stood at 2.21; with 牛血清白蛋白(BSA) (bovine) [8], 0.332; in the assay with 牛血清白蛋白(BSA) (bovine) [9], 2.39; in the assay with 牛血清白蛋白(BSA) (bovine) [10], 0.846; with 牛血清白蛋白(BSA) (bovine) [11] it was 0.538; in the assay with 牛血清白蛋白(BSA) (bovine) [12] it was 0.269. Besides, the OD450 worked out at 0.454 in the assay with 牛血清白蛋白(BSA) (bovine) [13]; 0.677 in the assay with 牛血清白蛋白(BSA) (bovine) [14]; 1.64 in the assay with 牛血清白蛋白(BSA) (bovine) [15]; 0.161 in the assay with 牛血清白蛋白(BSA) (bovine) [16]; 0.371 in the assay with 牛血清白蛋白(BSA) (bovine) [17]; 1.66 with 牛血清白蛋白(BSA) (bovine) [18]. The OD450 with 牛血清白蛋白(BSA) (bovine) [19] stood at 1.9; with 牛血清白蛋白(BSA) (bovine) [20], 0.15; in the assay with 牛血清白蛋白(BSA) (bovine) [21] it was 0.981; with 牛血清白蛋白(BSA) (bovine) [22], 0.184.
